Source: article PMC11220700, “Activation and Purification of ß‐Glucocerebrosidase by Exploiting its Transporter LIMP‐2 – Implications for Novel Treatment Strategies in Gaucher's and Parkinson's Disease” (Advanced Science, 2024)

Experiments:
[1] = system: GCase variants in HEK 293T cells; assay: GCase activity in LE fractions after co‐expression of GCase variants with FL‐LIMP‐2; type: cell-based, human; settings: versus FL‐LIMP‐2‐3xD
Procedure: (§1) HEK 293T cells (Leibniz Institute DSMZ‐German Collection of Microorganism and Cell Cultures GmbH, Braunschweig, Germany) were cultured on TC dishes (Sarstedt, Nümbrecht, Germany, #83.3902, #83.3903) in Dulbecco's modified eagle medium (DMEM, Gibco, Carlsbad, CA, United States) supplemented with 10% fetal calf serum (FCS, PANbiotech, Aidenbach, Germany) and 1× penicillin/streptomycin (Sigma‐Aldrich, St. Louis, MO, United States, #P0781) at 37 °C, 5% CO2 and 95% humidity. Passaging was done at 70–90% confluence by detaching with trypsin (PAN‐Biotech, Aidenbach, Germany, #P10‐023100) for 5 min and transferring part of the culture to a new dish containing fresh medium. The HEK 293T cells were transfected using PEI at 60–70% confluence. For a 10 cm TC dish, the transfection mix was prepared by adding 5 µg plasmid DNA, 15 µg of PEI (ratio of 1:3 DNA to PEI) to 300 µl DMEM without FCS. After incubation for 25 min at room temperature, the mix was added to the cells. If the cell supernatant was analyzed, the cells were washed twice with phosphate‐buffered saline (PBS, Gibco, Carlsbad, CA, United States) and the medium was changed to DMEM without FCS 16 h after transfection.
Activity of GCase‐containing samples (recombinant protein, cell lysate, LE fractions, conditioned culture medium) was measured using the synthetic substrate 4‐methylumbelliferyl‐β‐D‐glucopyranoside (4MU, Merck Millipore, Billerica, MA, United States, #M3633). […] of the sample (cell supernatant, SEC fractions) or 2.5 µg of total protein from whole‐cell lysates were added to the well of a black 96‐well Maxisorp plate (ThermoFisher Scientific Inc., Waltham, MA, United States, #437 111). The reaction volume was then increased to 100 µL with GCase activity buffer (see paragraph “Cell Lysis”) and a final concentration of 1 µM of 4MU substrate was added. After incubation at 37 °C for 30 min, the reaction was stopped by adding 100 µL of stop solution (0.1 M glycine, pH 10.4). GCase activity was quantified via fluorescence of released 4‐methylumbelliferone (endpoint measurement) using an Infinite 200 Pro (TECAN, Männedorf, Switzerland), SpectraMax Gemini (Molecular Devices, San José, CA, United States) or ClarioStar (BMG LABTECH, Ortenberg, Germany) multiplate reader (λ ex: 365 nm; λ em: 445 nm).
For evaluation, all data sets obtained for GCase enzymatic activity were baseline‐corrected and normalized to the overall signal (either total signal or average of controls) within each replicate experiment to correct for signal differences between different measurement devices and replicate measurements.

[2] = system: GCase variants in HEK 293T cells; assay: Western blot of GCase in LE fractions after co‐expression with FL‐LIMP‐2; type: cell-based, human; settings: versus FL‐LIMP‐2‐3xD
Procedure: SDS PAGE was performed using a Tris‐glycine buffer system (resolving buffer: ThermoFisher Scientific Inc., Waltham, MA, United States, #HC2215; stacking buffer: ThermoFisher Scientific Inc., Waltham, MA, United States, #HC2115; running buffer: 25 mM Tris, 192 mM glycine, […]). All samples were prepared by adding 5× Laemmli buffer (0.3 M Tris‐HCl, pH 6.8, 10% w/v SDS, 50% v/v glycerol, 5% v/v β‐mercaptoethanol, 5% w/v bromophenol blue) to the samples in a 1:5 ratio and heating the samples for 5 min at 95 °C. The samples were then separated over a 10% polyacrylamide gel. After SDS PAGE, wet blotting was performed to transfer the proteins onto a PVDF membrane (Merck Millipore, Billerica, MA, United States, #IPFL00010). […] After incubation, membranes were washed three times with TBS‐T (TBS + 0.1% v/v TWEEN‐20) before incubation with secondary antibodies for 2 h at RT followed by three more washing steps with TBS‐T. The fluorescence‐based acquisition was done using an Odyssey (LI‐COR Biosciences, Lincoln, NE, United States) or IBright (ThermoFisher Scientific Inc., Waltham, MA, United States) imaging system. […]
Quantification of western blot data was performed in ImageStudioLite 5.2 (LI‐COR Biosciences, Lincoln, NE, United States). […]

[3] = system: GCase variants in HEK 293T cell lysates; assay: GCase activity in cell lysates of cells overexpressing GCase variants; type: cell-based, human; settings: 4MU; for GCase activity compared with mock: cell lysates, N370S n = 3, L444P n = 5
Procedure: as §1
Harvested cells were washed three times with cold PBS and pelleted (1.000 × g, 3 min, 4 °C). […] Protein concentrations were determined using Pierce BCA Protein Assay Kit (ThermoFisher Scientific Inc., Waltham, MA, United States, #23 227).
Activity of GCase‐containing samples (recombinant protein, cell lysate, LE fractions, conditioned culture medium) was measured using the synthetic substrate 4‐methylumbelliferyl‐β‐D‐glucopyranoside (4MU, Merck Millipore, Billerica, MA, United States, #M3633). […] GCase activity was quantified via fluorescence of released 4‐methylumbelliferone (endpoint measurement) using an Infinite 200 Pro (TECAN, Männedorf, Switzerland), SpectraMax Gemini (Molecular Devices, San José, CA, United States) or ClarioStar (BMG LABTECH, Ortenberg, Germany) multiplate reader (λ ex: 365 nm; λ em: 445 nm). […]

GCase variants = settings: cited from earlier work
Source text: The link between GCase and PD was first established when studies found an increased prevalence of PD in GD patients and their relatives.^[ [14], [15], [16] ^] […] All three variants are characterized by compromised stability and/or enzyme activity. The L444P variant ...

B1: FL‐LIMP‐2: full‐length, membrane‐anchored wt LIMP‐2 (protein, UniProt Q14108 1-478, looked up)
chain: MGRCCFYTAGTLSLLLLVTSVTLLVARVFQKAVDQSIEKKIVLRNGTEAFDSWEKPPLPVYTQFYFFNVTNPEEILRGETPRVEEVGPYTYRELRNKANIQFGDNGTTISAVSNKAYVFERDQSVGDPKIDLIRTLNIPVLTVIEWSQVHFLREIIEAMLKAYQQKLFVTHTVDELLWGYKDEILSLIHVFRPDISPYFGLFYEKNGTNDGDYVFLTGEDSYLNFTKIVEWNGKTSLDWWITDKCNMINGTDGDSFHPLITKDEVLYVFPSDFCRSVYITFSDYESVQGLPAFRYKVPAEILANTSDNAGFCIPEGNCLGSGVLNVSICKNGAPIIMSFPHFYQADERFVSAIEGMHPNQEDHETFVDINPLTGIILKAAKRFQINIYVKKLDDFVETGDIRTMVFPVMYLNESVHIDKETASRLKSMINTTLIITNIPYIIMALGVFFGLVFTWLACKGQGSMDEGTADERAPLIRT
modifications: full-length
GCase activity in LE fractions, E326K ([1]; co‐expression with GCase E326K): significant increases
GCase transport and activity, L444P ([1]; co‐expression with GCase L444P): both transport and activity could not be rescued by LIMP‐2
GCase activity in LE fractions, N370S ([1]; co‐expression with GCase N370S): no increase in enzymatic activity could be determined
GCase activity in LE fractions, wt ([1]; co‐expression with GCase wt): significant increases
lysosomal GCase levels of wt, E326K and N370S [2]: exceeded those of the FL‐LIMP‐2‐3xD control

B2: E326K: PD‐associated GCase variant (protein)
chain: ARPCIPKSFGYSSVVCVCNATYCDSFDPPTFPALGTFSRYESTRSGRRMELSMGPIQANHTGTGLLLTLQPEQKFQKVKGFGGAMTDAAALNILALSPPAQNLLLKSYFSEEGIGYNIIRVPMASCDFSIRTYTYADTPDDFQLHNFSLPEEDTKLKIPLIHRALQLAQRPVSLLASPWTSPTWLKTNGAVNGKGSLKGQPGDIYHQTWARYFVKFLDAYAEHKLQFWAVTAENEPSAGLLSGYPFQCLGFTPEHQRDFIARDLGPTLANSTHHNVRLLMLDDQRLLLPHWAKVVLTDPEAAKYVHGIAVHWYLDFLAPAKATLGKTHRLFPNTMLFASEACVGSKFWEQSVRLGSWDRGMQYSHSIITNLLYHVVGWTDWNLALNPEGGPNWVRNFVDSPIIVDITKDTFYKQPMFYHLGHFSKFIPEGSQRVGLVASQKNDLDAVALMHPDGSAVVVVLNRSSKDVPLTIKDPAVGFLETISPGYSIHTYLWRRQ
residual activity of GCase variant ([3]; HEK 293T cell lysates, versus wt, n = 5, mean ± SEM): 40.0 ± 2.2%
residual activity of GCase variant (literature) (GCase variants): ≈ 40%

B3: L444P: disease‐associated GCase variant (protein)
chain: ARPCIPKSFGYSSVVCVCNATYCDSFDPPTFPALGTFSRYESTRSGRRMELSMGPIQANHTGTGLLLTLQPEQKFQKVKGFGGAMTDAAALNILALSPPAQNLLLKSYFSEEGIGYNIIRVPMASCDFSIRTYTYADTPDDFQLHNFSLPEEDTKLKIPLIHRALQLAQRPVSLLASPWTSPTWLKTNGAVNGKGSLKGQPGDIYHQTWARYFVKFLDAYAEHKLQFWAVTAENEPSAGLLSGYPFQCLGFTPEHQRDFIARDLGPTLANSTHHNVRLLMLDDQRLLLPHWAKVVLTDPEAAKYVHGIAVHWYLDFLAPAKATLGETHRLFPNTMLFASEACVGSKFWEQSVRLGSWDRGMQYSHSIITNLLYHVVGWTDWNLALNPEGGPNWVRNFVDSPIIVDITKDTFYKQPMFYHLGHFSKFIPEGSQRVGLVASQKNDPDAVALMHPDGSAVVVVLNRSSKDVPLTIKDPAVGFLETISPGYSIHTYLWRRQ
GCase activity compared with mock [3]: do not differ significantly from the mock
stability and activity of GCase variant (literature) (GCase variants): impaired stability and highly impaired activity

B4: N370S: disease‐associated GCase variant (protein)
chain: ARPCIPKSFGYSSVVCVCNATYCDSFDPPTFPALGTFSRYESTRSGRRMELSMGPIQANHTGTGLLLTLQPEQKFQKVKGFGGAMTDAAALNILALSPPAQNLLLKSYFSEEGIGYNIIRVPMASCDFSIRTYTYADTPDDFQLHNFSLPEEDTKLKIPLIHRALQLAQRPVSLLASPWTSPTWLKTNGAVNGKGSLKGQPGDIYHQTWARYFVKFLDAYAEHKLQFWAVTAENEPSAGLLSGYPFQCLGFTPEHQRDFIARDLGPTLANSTHHNVRLLMLDDQRLLLPHWAKVVLTDPEAAKYVHGIAVHWYLDFLAPAKATLGETHRLFPNTMLFASEACVGSKFWEQSVRLGSWDRGMQYSHSIITSLLYHVVGWTDWNLALNPEGGPNWVRNFVDSPIIVDITKDTFYKQPMFYHLGHFSKFIPEGSQRVGLVASQKNDLDAVALMHPDGSAVVVVLNRSSKDVPLTIKDPAVGFLETISPGYSIHTYLWRRQ
GCase activity compared with mock [3]: do not differ significantly from the mock
stability and activity of GCase variant (literature) (GCase variants): stable with low residual activity
